We go through two proteins from patent US20070244108A1.

What is called Km is the substrate concentration at which the rate is half of its maximum.

Substrate in the series: C[C@]12CCC(=O)C=C1CCC1C2C(=O)C[C@@]2(C)C1CC[C@]2(O)C(=O)CO
Kind of series: cells, lysate or membranes named.

B1: human hepatic microsomal 11β HSD1 (Homo sapiens) (protein)
chain: MAFMKKYLLPILGLFMAYYYYSANEEFRPEMLQGKKVIVTGASKGIGREMAYHLAKMGAHVVVTARSKETLQKVVSHCLELGAASAHYIAGTMEDMTFAEQFVAQAGKLMGGLDMLILNHITNTSLNLFHDDIHHVRKSMEVNFLSYVVLTVAALPMLKQSNGSIVVVSSLAGKVAYPMVAAYSASKFALDGFFSSIRKEYSVSRVNVSITLCVLGLIDTETAMKAVSGIVHMQAAPKEECALEIIKGGALRQEEVYYDSSLWTTLLIRNPCRKILEFLYSTSYNMDRFINK
For the protein B1, where the note is “other: 10 μg microsomal protein, 30 min at 37° C., Buffer 1, TLC assay”, the Km turned out to be 0.66 µM.

B2: Human 11β HSD1 (Homo sapiens) (protein)
chain: B1 chain
As to B2, the Km (other: RIA detection, 10 μg/well microsomal protein, 30 min, buffer 3, 37.0 °C) was 0.7 µM.
